The values that follow are results of earlier work, collected in patent US20240277840A1, “SUPERCONCENTRATED FORMULATIONS OF BIOACTIVE AGENTS” (UPKARA, INC., priority 2021, published 2024).

The conditions of this series: intraperitoneal (IP) administration, preclinical.

Where only a bound is given, the exact number is not on record here.

As to catumaxomab, the “local concentration of the antibody in the ascites fluid” value was “high local concentrations” and the “systemic exposure, detectable in plasma” value is on record as less than 5%.
